Measurements published in paper PMC10643120 (Nature structural & molecular biology, 2023).

Target: the molecule itself
Experiment: SEC-MALS; 100 μL of purified protein at 5 mg/mL on Superdex 200 Increase 10/300 GL in buffer GF (300 mM NaCl, 1 mM DTT)

Row | Protein | stoichiometry N
1 | 201Φ2-1 gp2 (ChmB), purified (natural protein, Pseudomonas phage 201Φ2-1, UniProt B3FJX8 1-179, looked up) MTLIAKPAVPDTEVLNHIGRDLLLKDEDGSFKLQRHLKILTEEGLVHQVSFAQVDGLLNILDSTRETPPCSPLQYLITHYDLKDLVELGKDGWLVPEYQVVVMHSSKTVRFEGKLTRVGSIDKEFTFALGGFDFIQQLSLARCIASLGKEFEQVIGTFDCTYVFKTGPDGISVSTDIGV | 2
2 | ΦPA3 gp2 (ChmB), purified (natural protein, Pseudomonas phage ΦPA3, UniProt F8SJN3 1-197, looked up) MTDVAYPYLETSTLFDNIVKGQILEPDAESPQLSHVLKITDAAGIGHEVTFFQLSILLAILQGNKHELTDNQPHQYLVNQWVLTDLHNIYDEGYVMTSHRVIVDHVEEVATFTGTLVHQKTIRSHPNWQEGFTAPVKEFEFNLENFGIFHQIVFSQCIANLTPELDWVARTFGHSYIFEMEGRNVRVASIQEEGTTE | 2
3 | gp2 homolog of phage Psa21 (gp3), purified (natural protein, Pseudomonas phage Psa21, UniProt A0A481W4E6 1-229, looked up) MNPVYDIFNDIANNMVTVENKEEFLSNTVRLVGASGKEHVLSIAQAQLLLGVLDGSHQFLTDYNPLEFLLFSYQFQDKIKLKYVAVQYQIIYDADDDSIFVSGVTRHPMTVVGHPDYVAGASVPIETFQTTIPNVGLYGGLALVNCIATQSPDFAPVKGSFGGSFIFEFDGGKQSIRRYVPAEIDEPVIHKEELQEALDEAVKKFVPSAAPKVEFNGIKDTSTKTEQEI | 2
